According to the supplement of paper PMC11780869:

Tested on: Bacillus subtilis
Test: cleaved RNA product abundance (RNA/gDNA barcode ratio) relative to median wild-type variant (ratio to wild type); higher = more accumulation of the downstream cleavage product
How it was run: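 The B. subtilis chromosome carried reporter mRNAs, truncated aprE or tetM, containing barcoded RNase Y cleavage-site windows mutagenized using oligos with a 9% error rate. After growth in LB at 37°C from OD600 0.0003 to 0.3, cleaved RNA was gel-selected, reverse transcribed and barcode-sequenced next to genomic DNA barcodes, with UMI collapsing. Each construct's RNA:gDNA barcode ratio was scaled to the median construct with the unmutated site. That scaled ratio is reported as cleaved product abundance.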

[1] = experiment (reporter, strain, medium): exp 4a: truncated aprE reporter, strain BJT201 with 2% xylose (RNase J1 expressed), cleavage site: cggR-gapA (positions -7 to +36 mutated)
[2] = experiment (reporter, strain, medium): exp 2b: truncated aprE reporter, strain BJT200, cleavage site: cggR-gapA (positions -7 to +36 mutated)
[3] = experiment (reporter, strain, medium): exp 8a: truncated aprE reporter, strain BJT201 with 2% xylose (RNase J1 expressed), cleavage site: glnRA (positions -5 to +31 mutated)

Sequence	cleaved RNA product abundance [1]	cleaved RNA product abundance [3]	further results
ACAGACGAAGGAGCCGCAAAGAAGTTATTAAGGTATGATTAATCCCTCAATATAAATATCTCTCACTTATTTAAA	0.153		
ACAGACGAAGGAGCCGCAAAGAAGTTATTAAGGGATGAATTAACCCTCAATATAAATATCTCTCACTTATTTAAA	0.492		
ACAGACGAAGGAGCCGCAGAGAAGTTATTAAGGGATGATTAATCCCTCAATATAAATATCTCTCACTTATTTAAA			cleaved RNA product abundance [2]: 0.638
CGACATGTCCCGCTTCTTTCATTAATCCGTTAGCAACTGTTTTGCTATATTCATTTACCTTTTAAGAGGAGGAAT		0.233	
CGACATGTCCCGCTTCTTTCATTAACCCGTTAGCAACTGTTTTGCTATATATATTTACCTTTTAAGAGGAGGAAT		1.16	
CGACATGTCCCGCTTCTTTCATTAATCCGTTAGAACCTGTTTTGCTATATACATTTACCTTTTAAGAGGAGGAAT		0.229	
ACAGACGAAGGAGCCGCAAAGAAGTTATTAAGTGATGAATAATCCCTCAATATATATATCTCTCACTTATTTAAA	0.107		cleaved RNA product abundance [2]: 0.115
ACAGACGAAGGAGCCGCAAATAAGTTCTTAAGGGATGAATAATCCCTCAATATAAATATCTCTCACTTATTTAAA	0.258		cleaved RNA product abundance [2]: 0.148
ACAGACGAAGGAGCCGCAAAGAAGTTATTAAGGGATAAATAATCCCTCAACATAAATATCTCTCACTTATTTAAA	0.251		
ACAGACGAAGGAGCCGCAAAGAAGTTATTAAGGGATGAATCATCCATCAATATAAATATCTCTCACTTATTTAAA	0.219		
ACAGACGAAGGAGCCGCAAAGAAGTTATTAAGGAATGAATAATCACTCAATATAAATATCTCTCACTTATTTAAA	0.124		cleaved RNA product abundance [2]: 0.111
CGACATGTCCCGCTTCTTTCATTAATCCGTTAGCAACTGTTCTGCTATATACATGTACCTTTTAAGAGGAGGAAT		0.386	
CGACATGTCCCGCTTCTTTCATTAATCCGTTAGCAACTGTATTGCTATATAAATTTACCTTTTAAGAGGAGGAAT		0.849	
CGACATGTCCCGCTTCTTTCATTAATCCTTTAGCATCTCTTTTGCTATATACATTTACCTTTTAAGAGGAGGAAT		0.512	
CGACATGTCCCGCTTCTTTCATTACTCCGTTAGCAATTGTTTTGCTATATACATTTACCTTTTAAGAGGAGGAAT		1.23	
ACAGACGAAGGAGCCGCAATGAAGTTATTAAGGGTTGAATAATCCCTCAATATAAATATCTCTCACTTATTTAAA			cleaved RNA product abundance [2]: 0.325
ACAGACGAAGGAGCCGCAAAGAAGGAATTAAGGGATGAATAATCCCTCAATATAAATATCTCTCACTTATTTAAA	0.353		
ACAGACGAAGGAGCCGCAAAGAACTTATTAAGGGATGAATAATCCCTCAATATAAATAACTCTCACTTATTTAAA	0.566		cleaved RNA product abundance [2]: 0.444
CGACATGTCCCGCTTCTTTCATTAATCCGTTCGCAATTGTTTTGCTATATACATTTACCTTTTAAGAGGAGGAAT		0.31	
ACAGACGAAGGAGCCGCAAAGAAGTTATCAAGGCATGAATAATCCCTCAATATAAATATCTCTCACTTATTTAAA	0.0787		
CGACATGTCCCGCTTCTTTCATTAATCCGCAGGCAACTGTTTTTCTAAATACAAATACCTTTTAAGAGGAGGAAT		0.213	

Sequence	cleaved RNA product abundance [1]	cleaved RNA product abundance [3]	further results
ACAGACGAAGGAGCCGCAAAGAAGTTATTCAGGTATGAATAATCCCTCAATATAAATATCTCTCACTTATTTAAA	0.161		
CGACATGTCCCGCTTCTTTCATTAATCCGTTAGCAACTGTTTTGCTATATCCATTGACCTTTTAAGAGGAGGAAT		0.461	
CGACATGTCCCGCTTCTTTCATTAATCCGTTAGCGACTGTTTTGATATATACATTTACCTTTTAAGAGGAGGAAT		0.24	
ACAGACGAAGGAGCCGCAAAGAAGTTATTAAGAGATGAATAAGCCCTCAATATAAATATCTCTCACTTATTTAAA	0.0929		cleaved RNA product abundance [2]: 0.1
ACAGACGAAGGAGCCGCATAGAAGTTATTAAGGGATGAATAATCCCTCAATATTAATATCTCTCACTTATTTAAA	0.121		
CGACATGTCCCGCTTCTTTCATTAATCCGTTAGGAACTGTTTTGCGATATACATTTACCTTTTAAGAGGAGGAAT		0.312	
ACAGACGAAGGAGCCGCAAAGAAGTTATTAAGGGATGAATAATCCCCCAATATAAATATCTCTCACTTATTTAAA	0.36		cleaved RNA product abundance [2]: 0.285; cleaved RNA product abundance (experiment (reporter, strain, medium): exp 6: tetM reporter, strain 168, cleavage site: cggR-gapA (positions -7 to +36 mutated)): 0.457
CGACATGTCCCGCTTCTTTCATTAATCTGTTAGCAACTGTTATCCTATATACATTTACCTTTTAAGAGGAGGAAT		0.577	
CGACATGTCCCGCTTCTTTCATTAATCCGTTCGCAACTGTTTTGTTATATACATTTACCTTTTAAGAGGAGGAAT		0.411	
ACAGACGAAGGAGCCGCAAAGAAGTTATTAAGGGATGAATAATCCCTAAATATAAACATCTCTCACTTATTTAAA	0.57		cleaved RNA product abundance [2]: 0.509
ACAGACGAAGGAGCCGCAAAGAAGTTATTAAAGGATGAATAATCCCCTCAATATAAATATCTCTCACTTATTTAA	0.159		
ACAGACGAAGGAGCCGCAAAGAAGTTATTAAGGGATGAATAAACCCGCAATATAAATATCTCTCACTTATTTAAA	0.103		
ACAGACGAAGGAGCCGCAAATAAGTTATTAAGGGATGAATAATCCCTCAATATAAATACCTCTCACTTATTTAAA	0.538		
CGACATGTCCCGCTTCTTTCATTAATCCGTTAGTAAGTGTTTTGCTATATACATTTACCTTTTAAGAGGAGGAAT		0.265	
ACAGACGAAGGAGCCGCAAAGAAGTTATTTAGGGATGAATAATCCCTGAATATAAATATCTCTCACTTATTTAAA	0.559		
ACAGACGAAGGAGCCGCAAAGGAGTTATTAAGGGATGAATAATCCCTCACTATAAATATCTCTCACTTATTTAAA	0.302		
ACAGACGAAGGAGCCGCTAAGAAGTTATTAAGGGATTAATAATCCCTCAATATAAATATCTCTCACTTATTTAAA	1.02		
CGACATGTCCCGCTTCTTTCATTACTCCGTTAGCAACTGTTTTGCCATATACATTTACCTTTTAAGAGGAGGAAT		0.246	
ACAGACGAAGGAGCCGCAAAGAAGTTATTAACGGATGAATAATCCCTCAAAATAAATATCTCTCACTTATTTAAA	0.158		cleaved RNA product abundance [2]: 0.105
ACAGACGAAGGAGCCGCAAAGAAGATATTAAGGGATGAATAATCCGTCAATATAAATATCTCTCACTTATTTAAA	0.239		
ACAGACGAAGGAGCCGCATAGAAGTTATTAAGGGATGAATAATCCCTCCATATAAATATCTCTCACTTATTTAAA	0.24		

Sequence	cleaved RNA product abundance [1]	cleaved RNA product abundance [3]	further results
CGACATGTCCCGCTTCTTTCATTAATCCGTTAGCAATTGTTTTGCTATATACATTGACTTTTTAAGAGGAGGAAT		1.33	
ACAGACGAAGGAGCCGCAAAGAAGTTATTAAGGGATGAATAATCCCTCTAGATAAATATCTCTCACTTATTTAAA	0.266		
ACAGACGAAGGAGCCGCAAAGAAGTTATTAAGGGATCAACAATCCCTCAATATAAATATCTCTCACTTATTTAAA	0.962		cleaved RNA product abundance [2]: 1
ACAGACGAAGGAGCCGCAAATAAGTTATTAAGGGATGAATAATCCCTCAATATAAACATCTCTCACTTATTTAAA	0.822		cleaved RNA product abundance [2]: 0.822
CGACATGTCCCGCTTCTTTCATTAATCCGTTAGCAACCGTTTTGCTATATACATTTACCTTTTAAGAGGAGGAAT		0.617	
CGACATGTCCCGCTTCTTTCATTAATCCGTTAGCAACTGTTTAGCTATATACATTAACCTTTTAAGAGGAGGAAT		0.618	
ACAGACGAAGGAGCCGCAAAGAAGTTATTAAGGGATGAATAATCCCTCAATATAAAAATTTCTCACTTATTTAAA	0.688		
CGACATGTCCCGCTTCTTTCATTAATCCGTTAGCAACTTTTTTGCTATATATATTTACCTTTTAAGAGGAGGAAT		0.911	
ACAGACGAAGGAGCCGCAAAGAAGTTATTAAGGGATGTATAATCCCTCAAAATAAATATCTCTCACTTATTTAAA	0.344		cleaved RNA product abundance [2]: 0.267
ACAGACGAAGGAGCCGCAAAGAAGATAGTAAGGGATGAATAATCCCTCAATATAAATATCTCTCACTTATTTAAA	0.265		
CGACATGTCCCGCTTCTTTCATTAATTCGTTAACAACTGTTTTGCTATATACATTTACCTTTTAAGAGGAGGAAT		0.209	
CGACATGTCCCGCTTCTTTCATTACTCCGTTAGCAGCTGTTTTGCTATATACATTTACCTTTTAAGAGGAGGAAT		0.827	
ACAGACGAAGGAGCCGCAAACAAGTTTTTAAGGGATGAATAATCCCTCAATATAAATATCTCTCACTTATTTAAA	0.304		cleaved RNA product abundance [2]: 0.289
ACAGACGAAGGAGCCGCAAAGTAGTTAATAATGGATGAATAATCCCTCAATATAAATATCTCTCACTTATTTAAA	0.0855		
CGACATGTCCCGCTTCTTTCATTAATCCGTTAGCAACTGTTTTCCTATATACATTCACCTTTTAAGAGGAGGAAT		0.346	
CGACATGTCCCGCTTCTTTCATTAAACCGTTACCAACTGTTTTGCTATATACATTTACCTTTTAAGAGGAGGAAT		0.189	
CGACATGTCCCGCTTCTTTCATTAATCCGTTACCAACTGTTTTGCTATATACATTTACTTTTTAAGAGGAGGAAT		0.208	
CGACATGTCCCGCTTCTTTCATTAATCCGTAAGCAACTGTTTCGCTATATACATTTACCTTTTAAGAGGAGGAAT		0.145	
ACAGACGAAGGAGCCGCAAATAAGTTATTAAGGGATGAATAAGCCCTCAATATAAATATCTCTCACTTATTTAAA	0.476		
